The record followed here is the supplement of paper PMC9170038.

In the series the test system is MS2 coat protein. Nature of the series: apparent KD of MS2 coat protein; designed switch direction (-1 OFF switch, 1 ON switch): -1; higher = weaker reporter binding. The method in brief: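 SNAP-549-labelled MS2 coat protein was titrated, doubling from 0.7 or 1.5 nM to 3 µM, over designed RNA switches transcribed on Illumina chips by stalled E. coli RNA polymerase. Runs were done without input, with 200 uM small-molecule ligand, or with an oligonucleotide input. Apparent KD is the per-design median over clusters of curve-fitted normalised fluorescence.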

[1] abbreviates: Eterna round: R95, input ligand: FMN 200 uM.
[2] abbreviates: Eterna round: R95, input ligand: microRNA oligo, concentration not stated.
The mark [3] stands for this setting: Eterna round: R95, input ligand: none.
The mark [4] stands for this setting: input ligand: microRNA oligo, concentration not stated.

On to “GAGUGUUGAGGAUAUACAUGAGGAUCACCCAUGUGCUUCAGCUAGGAGACUAGCAUUGGUAGAAGGCAGUACUC [Mod of lroppy 9 - Jieux - Exclusion 3] (Eterna round: R97, puzzle: Exclusion 3)”, for which the “apparent KD of MS2 coat protein” value is, setting by setting: (input ligand: FMN 200 uM) 0.0483 µM; (input ligand: none) 0.0371 µM.
As for “UGAGUGUGAGGAUAUGGUAAAGAUAAGAUGAUGAAAGAACUCCAGAAGGCACAUGAGGAUCACCCAUGUAGAUG [JL-ex4-2.12 Jieux mod] (puzzle: Exclusion 4)”, the “apparent KD of MS2 coat protein” value reads like this: under setting [1], 0.0811 µM; under setting [2], 0.0354 µM; under setting [3], 0.0357 µM.
On to “AGAUGCUCAAGUCGACAUGAGGAUCACCCAUGUACAGUUAAUGAGGAUAUCCGAGAUAAAUAAUAGGAGAAGGCAUGAUCAUGA [Ex NG3 #4] (Eterna round: R96, puzzle: Exclusion NG 3)”, for which the “apparent KD of MS2 coat protein” value (input ligand: FMN 200 uM) was 0.103 µM, the “apparent KD of MS2 coat protein” value under setting [4] is 0.0473 µM and the “apparent KD of MS2 coat protein” value (input ligand: none) worked out at 0.102 µM.
As for “CGAUAAAGGUGAGGAUAUGAGAAUAGAAAGAAAUCAGAAGGCACACAUGAGGAUCACCCAUGUGAGUUCUCGAGAUUACAUGGU [Prohibition 45 - Jieux - Exclusion NG 1] (Eterna round: R96, puzzle: Exclusion NG 1)”, the “apparent KD of MS2 coat protein” value under setting [4] was found to be 0.0108 µM.
As to “AGUAACCGUCACGAAAGUGAUGGUUACACAAGCAAAUGUACAUGAGGAUCACCCAUGUCCUCAUUUGUUCGUCUUAU [Sensor 3 - 47] (Eterna round: R96, puzzle: Sensor v3, turn-off variant 2)”, the “apparent KD of MS2 coat protein” value was determined as 0.101 µM (input ligand: FMN 200 uM), 0.305 µM under setting [4] and 0.104 µM (input ligand: none).
“UAAAAGCGAGGAUAUACAAACAGGUCCAAAACAUGUCUUGGACAUGAGGAUCACCCAUGUAGAAGGCGUAAAAG [Anleain] (Eterna round: R97, puzzle: Exclusion 2)”: the “apparent KD of MS2 coat protein” value was determined as 0.558 µM (input ligand: FMN 200 uM) and 0.0906 µM (input ligand: none).
In the same order, the values of “UCUCACUCAGGAUAUCUUCCGCAUGACAUGAGGAUCACCCAUGUGUGCAUGCCCUUUGGUAGAGAAGGGAGUGAGA [eternacac ex5r4 #5] (Eterna round: R97, puzzle: Exclusion 5)” are 0.0227 µM and 0.0244 µM.
The matching figures for “GAAAACGCUGAGGAUAUUUCUGAUCAAAGCAGCAAAGAAGGCAGCACAUGAGGAUCACCCAUGUGGUCUUCAAG [Mat - Exclusion 6 - JL Mod - D12] (Eterna round: R97, puzzle: Exclusion 6)”: 0.243 µM and 0.0447 µM.
Turning to “GAGGAACAUGAGGAUCACCCAUGUAAGGAUAUGCAAAGCGAGGUAGUAGAAGGAGAAGGCAGAAGGUACACGGA [JR_Exclu1_Sub075] (puzzle: Exclusion 1)”, the “apparent KD of MS2 coat protein” value was 0.0319 µM under setting [1], 0.0296 µM under setting [2] and 0.0453 µM under setting [3].
With “ACAAGAUCGGAAGGAUAUUGUACAUGAGGAUCACCCAUGUAAUAAAUGAGGAUCACGGAUGUAGACAAGAAGGUCCGGAUAAGA [Ostracism 4 - Jieux - Exclusion NG 2] (Eterna round: R96, puzzle: Exclusion NG 2)”, the “apparent KD of MS2 coat protein” value turned out to be 0.0456 µM (input ligand: FMN 200 uM), 0.0308 µM under setting [4] and 0.0362 µM (input ligand: none).
The matching figures for “ACAUGAGGAUCACCCAUGUCAGGCGGGUCUACUCCGGCUGUUGAGGAUAUAGUUCGGUAUCCGCGCUAGAAGGUGAGGGCCGGC [Aenatbe mod 23] (Eterna round: R96, puzzle: Exclusion NG 3)”: 0.0208 µM, 0.0149 µM and 0.0218 µM.
Consider “GGUGGACAUGAGGAUCACCCAUGUGAGGAUAUCGGCUGGUACGUGUUGGCUGGCAUCUCGAGAAGGCACAUCGU [Exclusion 1 V64] (puzzle: Exclusion 1)”, for which the “apparent KD of MS2 coat protein” value under setting [2] amounted to 0.0448 µM.
On to “CCAGAUGCAGGAUAUGUAAAAUUUGACAUGAGGAUCACCCAUGUAGAUCCUGAAUUUCCUGCAGAAGGGCAUCUGG [Mat - Exclusion 5 - Eli Mod - D20] (Eterna round: R97, puzzle: Exclusion 5)”, for which the “apparent KD of MS2 coat protein” value came out at 0.288 µM (input ligand: FMN 200 uM) and 0.105 µM (input ligand: none).
The matching figures for “GACUUCUCUGAGGAUAUUGCAUCAUACGAUUUAUAAGAAGGCAGAACAUGAGGAUCACCCAUGUGGGUUUUUAG [Bingo-Bango-30] (Eterna round: R97, puzzle: Exclusion 6)”: 0.102 µM and 0.055 µM.
For “GGUGGACAUGAGGAUCACCCAUGUGAGGAUAUCGGCUAUCUACUCGCUGACGGCUGCUCGAGAAGGCGCAUUGU [Exclusion 1 V90] (puzzle: Exclusion 1)”, under setting [2], the “apparent KD of MS2 coat protein” value worked out at 0.0448 µM.
As for “UUUUUAUAUGAAGGAUAUACUUAACAUGAGGAUCACCCAUGUGGUGUUGUGAGUGAGUGAGUUUAGUAGAAGGUCAAUUAUUAU [JMF's solution 15] (Eterna round: R96, puzzle: Exclusion NG 2)”, the “apparent KD of MS2 coat protein” value (input ligand: FMN 200 uM) stood at 0.719 µM, the “apparent KD of MS2 coat protein” value under setting [4] turned out to be 0.39 µM and the “apparent KD of MS2 coat protein” value (input ligand: none) was 0.271 µM.
On to “UAUUUCAUCUAUGGGAGUAACAUGAGGAUCACCCAUGUAUGUCUUGUUUUUUGUUCGUCUAAGACUUUCUGAUCAGU [JR_SV3TOV1_Sub031] (puzzle: Sensor v3, turn-off variant 1)”, for which the “apparent KD of MS2 coat protein” value by setting is: under setting [1], 0.0342 µM; under setting [2], 0.0455 µM; under setting [3], 0.0354 µM.
For “UAAUUGUGAGGAUAUUCGUAUAACACGGAGACGUGUUGUACGGAGAAGGCACAUGAGGAUCACCCAUGUUCCUU [Mat - Exclusion 4 - JL Mod - D18] (Eterna round: R97, puzzle: Exclusion 4)”, the “apparent KD of MS2 coat protein” value by setting is: (input ligand: FMN 200 uM) 0.096 µM; (input ligand: none) 0.0152 µM.
As to “UUAAUUAGCAGACUAAUACCUCACAUGAGGAUCACCCAUGUGCAGGAUAUCAGCUCGUGUAGAGCUGAGAAGGGCACUGUCUGC [ExNG3/12-A3] (Eterna round: R96, puzzle: Exclusion NG 3)”, the “apparent KD of MS2 coat protein” value turned out to be 0.017 µM (input ligand: FMN 200 uM), 0.0102 µM under setting [4] and 0.0108 µM (input ligand: none).
Take “GCGCACUAAGUGAGGAUAUCGUUUAUUUUUAGGAUCGAGAAGGCACAUGAGGAUCACCCAUGUUUGACGUGCGC [JR_BMOE4_Sub099] (puzzle: Brourd's mod of Exclusion 4)”: the “apparent KD of MS2 coat protein” value under setting [2] is 0.0179 µM.
Regarding “UUCUUUAUACGAGGAUAUCAUACAUGAGGAUCACCCAUGUGGCUGGGUCUGUUUUUAUAUAUUAUUGAGAAGGCGUUUUUCUUU [JR_ExcNG2_Sub074] (Eterna round: R96, puzzle: Exclusion NG 2)”, the “apparent KD of MS2 coat protein” value turned out to be 0.197 µM (input ligand: FMN 200 uM), 0.0505 µM under setting [4] and 0.0867 µM (input ligand: none).
For the sequence “CUUUUGUCAGGAUAUCGUGCAUACAACGAAAGUUCUAUGUGCGAGAAGGGACAUGAGGAUCACCCAUGUUACGG [Omei Ex4 A6] (Eterna round: R97, puzzle: Exclusion 4)”, the “apparent KD of MS2 coat protein” value is, setting by setting: (input ligand: FMN 200 uM) 0.175 µM; (input ligand: none) 0.677 µM.
As for “UUAAAUCAUGUAGGAUAUGCGUGGCGAAGCUAUGCAGAAGGACAUGAGGAUCACCCAUGUUCUAGCGUCUGCGUACAGAUGCUA [Mat - Exclusion NG 1 - Mod of JL - D76] (Eterna round: R96, puzzle: Exclusion NG 1)”, the “apparent KD of MS2 coat protein” value (input ligand: FMN 200 uM) came to 0.359 µM, the “apparent KD of MS2 coat protein” value under setting [4] is 0.0269 µM and the “apparent KD of MS2 coat protein” value (input ligand: none) was found to be 0.0383 µM.
Take “AUAUAGAUGGUCAGGAUAUGCUAGUGAUAACAGUAGCAGAAGGGACAUGAGGAUCACCCAUGUGGAUACCGCAC [Brourd's EX4 #7] (Eterna round: R97, puzzle: Brourd's mod of Exclusion 4)”: the “apparent KD of MS2 coat protein” value runs as follows: (input ligand: FMN 200 uM) 0.122 µM; (input ligand: none) 0.0319 µM.
As to “GUGACUCAGCAGGAUAUACGCGCGAGUGCGUAAGUAGAAGGGUUGACAUGAGGAUCACCCAUGUAGAACCACAC [Eternabot (L2) Solution 18] (Eterna round: R97, puzzle: Exclusion 6)”, the “apparent KD of MS2 coat protein” value (input ligand: FMN 200 uM) was determined as 0.0199 µM and the “apparent KD of MS2 coat protein” value (input ligand: none) worked out at 0.0184 µM.
Turning to “GCACGGAAUGUAGGAUAUUAGUGCGAUUAGCACUGAGAAGGACAUGAGGAUCACCCAUGUAACUCAAUAAUAAACCUUCCGUGC [Eli exng1 - 045] (Eterna round: R96, puzzle: Exclusion NG 1)”, the “apparent KD of MS2 coat protein” value reads like this: (input ligand: FMN 200 uM) 0.0112 µM; under setting [4], 0.00885 µM; (input ligand: none) 0.0122 µM.
With “UAUAACAAGCCAGAUCCUAACAUGAGGAUCACCCAUGUGCUCGUCUGAUUUUGUACUAUCAUGAGAGUGAUAGUACU [Level Boss var2-03] (puzzle: Sensor v3, turn-off variant 1)”, the “apparent KD of MS2 coat protein” value by setting is: under setting [1], 0.181 µM; under setting [2], 0.488 µM; under setting [3], 0.192 µM.
Turning to “CGGGUGAUAGGAUAUGACCAAGGUGACAUGAGGAUCACCCAUGUGAUCGUCGUAGACCUGUCAGAAGGGUUCCCGA [Bivevebe] (Eterna round: R97, puzzle: Exclusion 5)”, the “apparent KD of MS2 coat protein” value (input ligand: FMN 200 uM) was 0.0787 µM and the “apparent KD of MS2 coat protein” value (input ligand: none) came out at 0.0349 µM.
As to “AGAAGUAGUAACCGAUCCUACAUGAGGAUCACCCAUGUAGCUAGACGUGCACGCGACGCUCGUCAGACUACCAGAUG [salish99_TOv1_r3_029] (puzzle: Sensor v3, turn-off variant 1)”, the “apparent KD of MS2 coat protein” value runs as follows: under setting [1], 0.27 µM; under setting [2], 0.324 µM; under setting [3], 0.417 µM.
Turning to “CUAAAAGUCGAGGAUAUGCACCGGCUCGCUGACGCAGAAGGCGACACAUGAGGAUCACCCAUGUCGGUACGCGA [salish99_ex6_r004_451] (Eterna round: R97, puzzle: Exclusion 6)”, the “apparent KD of MS2 coat protein” value is 0.0339 µM (input ligand: FMN 200 uM) and 0.0183 µM (input ligand: none).
